The values below come from patent US20220372132A1 (SG MEDICAL, published 2022).

Experiment [1] concerns the target T1, recombinant human αVβ1 integrin (R&D Systems, USA) (human, UniProt P06756 31-992; P05556 21-728).
T1 construct: Bought heterodimer
Nature of the experiment: indirect ELISA, integrin coated at 1 µg/ml, HRP anti-human Fc detection. The protocol:
(§1) The affinities of the monoclonal antibody GP5 for various integrins were measured by indirect ELISA to determine the specificity of the monoclonal antibody GP5 for beta 1 integrin. Each of recombinant human αVβ1 integrin (R&D Systems, USA), αVβ3 integrin (R&D Systems, USA), αVβ5 integrin (R&D Systems, USA), αVβ6 integrin (R&D Systems, USA), αVβ8 integrin (R&D Systems, USA), α5β1 integrin (R&D Systems, USA), and α2bβ3 integrin (R&D Systems, USA) was diluted to 1 μg/ml in 50 μl of PBS, plated in a 96-well immune plate (Corning, USA), and stored at 4° C. overnight for its adsorption. After incubation with a buffer containing 3% bovine serum albumin (Millipore, USA) at 37° C. for 1 h, the wells were treated with the monoclonal antibody GP5 sequentially diluted to concentrations of 0.01, 0.03, 0.1, 0.3, 1, 3, 100, 300, and 1000 nM (50 μl/well). The well plate was incubated at 37° C. for 2 h to allow the antibody to bind to the antigen and washed 3 times with a buffer containing 0.5% Tween 20 (Amresco, USA). The wells were treated with HRP-labeled anti-human Fc IgG secondary antibody diluted 1:3000 with PBS (50 μl/well). The well plate was incubated at 37° C. for 1 h and washed 3 times with a buffer containing 0.5% Tween 20 (Amresco, USA). […] Absorbance was measured at 450 nm using a spectrophotometer (Biotek, USA).
On the technique in general: ELISA stands for enzyme-linked immunosorbent assay.

Experiment [2] concerns the target T2, α5β1 integrin (R&D Systems, USA) (human, UniProt P08648 42-995; P05556 21-728).
T2 construct: Bought heterodimer; also called recombinant human α5β1 integrin
The description is as above. The protocol:
as §1

T2 sequence (P08648 42-995 limits assumed, chain 1 of 2): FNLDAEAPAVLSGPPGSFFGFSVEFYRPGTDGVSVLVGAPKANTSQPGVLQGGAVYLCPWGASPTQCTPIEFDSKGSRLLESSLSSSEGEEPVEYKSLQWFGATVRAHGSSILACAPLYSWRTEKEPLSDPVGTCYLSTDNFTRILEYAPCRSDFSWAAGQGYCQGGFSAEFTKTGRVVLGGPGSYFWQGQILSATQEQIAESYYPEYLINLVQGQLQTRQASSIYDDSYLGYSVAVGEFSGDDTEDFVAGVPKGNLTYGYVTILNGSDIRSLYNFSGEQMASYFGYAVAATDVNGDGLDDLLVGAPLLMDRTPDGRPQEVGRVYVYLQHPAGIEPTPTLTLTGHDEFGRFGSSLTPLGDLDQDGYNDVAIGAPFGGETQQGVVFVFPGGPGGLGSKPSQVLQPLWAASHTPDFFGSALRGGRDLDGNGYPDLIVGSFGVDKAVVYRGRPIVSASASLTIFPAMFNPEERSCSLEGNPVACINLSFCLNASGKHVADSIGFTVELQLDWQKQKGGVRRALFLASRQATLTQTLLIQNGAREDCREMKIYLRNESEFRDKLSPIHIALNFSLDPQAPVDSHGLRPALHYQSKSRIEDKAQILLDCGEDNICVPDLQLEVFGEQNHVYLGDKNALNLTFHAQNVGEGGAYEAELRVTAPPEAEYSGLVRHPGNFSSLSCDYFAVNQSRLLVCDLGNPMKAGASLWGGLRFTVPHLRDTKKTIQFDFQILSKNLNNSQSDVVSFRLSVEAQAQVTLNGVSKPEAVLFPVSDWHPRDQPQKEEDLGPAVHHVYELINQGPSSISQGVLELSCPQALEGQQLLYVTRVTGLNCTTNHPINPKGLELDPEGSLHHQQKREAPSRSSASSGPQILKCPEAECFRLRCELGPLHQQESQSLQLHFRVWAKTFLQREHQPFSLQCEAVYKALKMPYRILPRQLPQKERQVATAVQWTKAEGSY
T2 sequence (P05556 21-728 limits assumed, chain 2 of 2): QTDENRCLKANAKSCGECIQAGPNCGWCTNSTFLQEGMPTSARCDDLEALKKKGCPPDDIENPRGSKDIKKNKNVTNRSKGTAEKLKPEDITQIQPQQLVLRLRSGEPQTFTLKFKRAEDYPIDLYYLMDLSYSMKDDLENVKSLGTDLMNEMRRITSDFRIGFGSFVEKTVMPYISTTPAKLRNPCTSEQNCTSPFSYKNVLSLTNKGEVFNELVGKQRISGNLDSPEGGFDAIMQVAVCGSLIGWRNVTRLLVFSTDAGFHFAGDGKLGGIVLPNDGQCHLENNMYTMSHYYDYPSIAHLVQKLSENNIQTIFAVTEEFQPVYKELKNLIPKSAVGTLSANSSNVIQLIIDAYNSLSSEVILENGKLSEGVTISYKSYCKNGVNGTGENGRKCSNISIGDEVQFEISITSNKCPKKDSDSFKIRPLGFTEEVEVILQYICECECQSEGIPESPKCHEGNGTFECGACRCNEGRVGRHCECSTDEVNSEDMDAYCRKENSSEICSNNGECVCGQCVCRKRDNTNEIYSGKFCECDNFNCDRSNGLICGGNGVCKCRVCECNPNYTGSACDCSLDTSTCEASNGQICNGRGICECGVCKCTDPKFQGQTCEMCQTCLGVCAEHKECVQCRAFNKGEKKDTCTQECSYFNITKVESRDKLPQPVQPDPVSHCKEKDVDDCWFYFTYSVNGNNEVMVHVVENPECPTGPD
T1 sequence (P06756 31-992 limits assumed, chain 1 of 2): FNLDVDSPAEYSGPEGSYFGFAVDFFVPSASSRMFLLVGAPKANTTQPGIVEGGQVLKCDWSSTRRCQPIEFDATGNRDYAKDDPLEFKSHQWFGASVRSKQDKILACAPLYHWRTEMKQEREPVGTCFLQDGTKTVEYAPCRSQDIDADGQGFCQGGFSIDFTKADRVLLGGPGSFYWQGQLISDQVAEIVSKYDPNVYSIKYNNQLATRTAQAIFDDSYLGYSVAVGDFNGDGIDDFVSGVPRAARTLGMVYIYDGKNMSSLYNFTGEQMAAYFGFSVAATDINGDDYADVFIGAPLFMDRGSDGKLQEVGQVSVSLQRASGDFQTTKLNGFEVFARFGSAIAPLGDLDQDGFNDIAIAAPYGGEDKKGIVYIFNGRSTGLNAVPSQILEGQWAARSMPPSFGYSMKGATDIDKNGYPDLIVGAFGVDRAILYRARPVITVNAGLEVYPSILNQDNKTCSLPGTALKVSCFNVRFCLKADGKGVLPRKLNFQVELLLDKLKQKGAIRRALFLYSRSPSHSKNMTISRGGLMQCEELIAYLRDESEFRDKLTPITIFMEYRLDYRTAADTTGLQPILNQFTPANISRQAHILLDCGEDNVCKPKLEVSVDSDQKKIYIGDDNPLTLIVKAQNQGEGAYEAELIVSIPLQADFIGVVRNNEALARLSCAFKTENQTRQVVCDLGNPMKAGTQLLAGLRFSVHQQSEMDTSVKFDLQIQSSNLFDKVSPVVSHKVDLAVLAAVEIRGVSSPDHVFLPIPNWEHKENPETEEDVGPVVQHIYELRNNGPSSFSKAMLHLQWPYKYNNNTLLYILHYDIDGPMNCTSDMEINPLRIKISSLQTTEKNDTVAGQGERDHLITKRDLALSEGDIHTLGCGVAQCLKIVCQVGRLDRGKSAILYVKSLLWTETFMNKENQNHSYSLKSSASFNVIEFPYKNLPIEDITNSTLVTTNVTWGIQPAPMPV
T1 sequence (P05556 21-728 limits assumed, chain 2 of 2): as the sequence (P05556 21-728 limits assumed, chain 2 of 2) above

B1: monoclonal antibody GP5 (antibody, human IgG1, V domains shown)
VH: QVQLQQSGSELMKPGASVKVSCKASGYTFTNYWIEWIVQRPGHGLEWIGEILPGSVNTNYNAKFKDRATFTADTSTDTASMELSSLTSEDSAVYYCALATPYYALDSWGQGTSVTVSS
VL: DIVMTQAAPSLSVTPGESVSISCRSTESLLHSNGNTYLYWYLQKPGQSPQLLIYRMSNRASGVPDRFSGSGSGTAFTLKIRRVEAEDVGVYYCMQHLEYPFTFGAGTKLELK
notes: Full IgG made in HEK293F cells; The humanized VH is joined to a human IgG1 heavy chain constant region (CH1, CH2, CH3) and the VL to a human Ckappa; also called humanized antibody GP5; modified monoclonal antibody (GP5)
As to B1, the binding result in experiment [1] and in experiment [2] was “binds” each time.
